Measurements: patent publication US20200397913A1, “AXL-SPECIFIC ANTIBODY-DRUG CONJUGATES FOR CANCER TREATMENT” (GENMAB A/S, priority 2015, published 2020)
Marks after values point to notes of the source that are not given here.

Legend:
[1] = target: Gas6 binding to AXL on A431 cells (Homo sapiens, UniProt P30530); experiment: Gas6 binding to A431 cells pre-incubated with AXL antibodies; set-up: endogenous in cells; host or cells: A431; details: pre-incubation with 10 μg/mL antibody; control antibody b12
Experimental: Alternatively, A431 cells were pre-incubated with 10 μg/mL AXL antibodies (15 minutes, 4° C.) to assess if the AXL ligand Gas6 could still bind in presence of AXL antibodies. […] After washing three times in PBS/0.1% BSA/0.02% azide, cells were incubated with mouse anti-Gas6 IgG2a (R&D Systems; cat no. MAB885) at 4° C. for 30 min. After washing three times in PBS/0.1% BSA/0.02% azide, cells were incubated with FITC-labelled goat anti-mouse IgG (Dako, Heverlee, Belgium; cat no. F049702) at 4° C. for 30 min in the dark. Next, cells were washed twice in PBS/0.1% BSA/0.02% azide, resuspended in 120 μL PBS/0.1% BSA/0.02% azide and analyzed on a FACS Cantoll (BD Biosciences).
(§1) Binding curves were analyzed using non-linear regression (sigmoidal dose-response with variable slope) using GraphPad Prism V5.04 software (GraphPad Software, San Diego, Calif., USA).
Therefore, binding of Gas6 to A431 cells that had been pre-incubated with 10 μg/mL AXL antibodies was tested as described in Example 2.

AXL on A431 cells = target: T1, AXL on A431 cells (Homo sapiens, UniProt P30530); experiment: Antibody binding to A431 cells with or without Gas6 pre-incubation; details: for Antibody binding to A431 cells: EC50 w/o Gas6 mean (s.d.): no Gas6 pre-incubation; for Antibody binding to A431 cells: EC50 in presence of Gas6 mean (s.d.): pre-incubation with 10 μg/mL Gas6
T1 construct: AXL-positive A431 cells were incubated; endogenous in cells; host or cells: A431

[2] = target: T2, AXLECDHis (extracellular domain of human AXL) (Homo sapiens, UniProt P30530); experiment: Binding affinity by Bio-Layer Interferometry (Octet); details: for Kdis / Kon: soluble AXLECDHis, 30° C, 1:1 model
T2 construct: the extracellular domain (ECD) of human AXL (aa 1-447) with a C-terminal His tag (AXLECDHis); His tag (C); made in house; host or cells: HEK-293F

[3] = tested on: MDA-MB-231 and Calu-1 cells; experiment: Internalization of cell surface bound HuMab-AXL by flow cytometry; type: cell-based, human; details: 1 hour 4° C, then overnight 37° C versus 4° C
Experimental: Internalization of cell surface bound HuMab-AXL antibodies to MDA-MB-231 and Calu-1 cells (human lung carcinoma cell line; ATCC, catalognumber HTB-54) was evaluated by flow cytometry. 50,000 cells were seeded in 96-well tissue culture plates and allowed to attach for 6 hrs at 37° C. Plates were incubated at 4° C. for 30 minutes before incubation with serial dilutions of AXL-antibodies (final concentration range 0.0032-10 μg/mL) at 4° C. for 1 hour. Subsequently, the medium was replaced by tissue culture medium without antibody and cells were incubated overnight (16-18 hours) at 37° C. or 4° C. […] Finally, cells were washed twice in PBS/0.1% BSA/0.02% azide, resuspended in 120 μL PBS/0.1% BSA/0.02% azide and analyzed on a FACS Cantoll (BD Biosciences).
as §1

human AXL = target: T3, human AXL (Homo sapiens, UniProt P30530); experiment: Flow cytometry binding to HEK293T cells transfected with full length human AXL; details: at least 3 experiments
T3 construct: expression constructs for full length human AXL; expressed in transfected cells; host or cells: HEK293T

[4] = target: T4, human AXL with a mouse ECD (Mus musculus, UniProt Q00993, A791T/A867T/C878S/D603E/D853E/E609A/F637Y/G606S/G869S/H824Y/L452V/L825P/L872Q/P881A/R785Q/R828P/S823G/S856P/S873P/T871A/V766A); experiment: Flow cytometry binding to HEK293T cells transfected with human AXL with mouse ECD; details: 0.0024-10 μg/mL
T4 construct: aa 1-441); expressed in transfected cells; host or cells: HEK293T
T4 sequence (Q00993 19-888 with the stated changes): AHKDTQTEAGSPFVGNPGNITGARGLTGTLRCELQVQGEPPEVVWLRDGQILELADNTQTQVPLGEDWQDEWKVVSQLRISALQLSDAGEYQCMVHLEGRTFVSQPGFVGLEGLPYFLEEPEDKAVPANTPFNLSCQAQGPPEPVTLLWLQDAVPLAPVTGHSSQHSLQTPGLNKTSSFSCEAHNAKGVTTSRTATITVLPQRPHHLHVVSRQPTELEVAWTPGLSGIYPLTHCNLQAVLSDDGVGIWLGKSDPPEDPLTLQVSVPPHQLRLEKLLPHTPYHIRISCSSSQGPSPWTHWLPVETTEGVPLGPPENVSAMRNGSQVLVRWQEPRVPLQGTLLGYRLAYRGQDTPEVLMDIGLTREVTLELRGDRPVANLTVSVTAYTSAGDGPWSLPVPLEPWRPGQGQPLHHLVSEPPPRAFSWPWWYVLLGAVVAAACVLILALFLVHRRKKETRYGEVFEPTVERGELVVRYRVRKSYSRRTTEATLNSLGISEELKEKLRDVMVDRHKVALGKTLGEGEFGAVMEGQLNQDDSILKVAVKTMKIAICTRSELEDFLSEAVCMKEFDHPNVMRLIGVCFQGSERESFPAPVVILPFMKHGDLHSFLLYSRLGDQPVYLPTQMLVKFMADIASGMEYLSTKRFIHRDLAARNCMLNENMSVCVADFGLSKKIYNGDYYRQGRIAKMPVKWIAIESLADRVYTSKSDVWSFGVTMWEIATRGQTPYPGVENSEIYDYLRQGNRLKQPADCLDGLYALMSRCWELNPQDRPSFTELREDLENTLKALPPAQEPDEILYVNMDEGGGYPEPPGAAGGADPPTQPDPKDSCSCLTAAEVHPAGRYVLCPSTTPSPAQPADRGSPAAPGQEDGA

[5] = target: T5, human AXL transiently expressed by HEK-293F cells (Homo sapiens, UniProt P30530); experiment: Homogeneous antigen specific screening assay (FMAT); details: binding to human AXL on HEK-293F cells
T5 construct: HEK-293F cells transiently expressing full length human AXL; expressed in transfected cells; host or cells: HEK-293F

[6] = target: T6, human AXL with a cynomolgus monkey extracellular domain (ECD) (Homo sapiens, UniProt P30530, P441T/S191N/S285L/T105A/T112A/T125N/T443A); experiment: Flow cytometry binding to HEK293T cells transfected with human AXL with cynomolgus ECD; details: at least 3 experiments
T6 construct: aa 1-447); expressed in transfected cells; host or cells: HEK293T

Molecule | Gas6 binding: Maximal binding in presence of AXL antibodies (% of binding in presence of control antibody) [1] [%] | Antibody binding to A431 cells: EC50 w/o Gas6 mean (s.d.) (AXL on A431 cells) | Antibody binding to A431 cells: EC50 in presence of Gas6 mean (s.d.) (AXL on A431 cells) | Kdis [2] [s⁻¹] | Kon [2] [M⁻¹ s⁻¹] | internalization of membrane-bound antibody [3] | Binding EC50 human AXL Average (s.d.) (human AXL) | binding to AXL with a mouse ECD [4] | Maximal binding [5] [Arbitrary units] | Binding EC50 cynomolgus AXL Average (s.d.) [6] | dissociation rate, fold higher than wild-type IgG1-AXL-183 [2]
IgG1-AXL-511: human IgG1,κ anti-AXL antibody, VH SEQ ID NO:136, VL SEQ ID NO:140; Ig2 domain binding (antibody, V domains shown, homo sapiens) VH: EVQLLESGGGLVQPGGSLRLSCAASGFTFSSYAMNWVRQAPGKGLEWVSGISGSGGHTYHADSVKGRFTISRDNSKNTLYLQMNSLRAEDTAVYYCAKDRYDILTGYYNLLDYWGQGTLVTVSS VL: DIQMTQSPSSLSASVGDRVTITCRASQGISSWLAWYQQKPEEAPKSLIYAASSLQSGVPSRFSGSGSGTDFTLTISSLQPEDFATYYCQQYNSYPLTFGGGAKVEIK | 113 | 0.12 (0.11) μg/mL | 0.30 (0.31) μg/mL | 0.0039 | 170000 | internalize | – | – | – | – | –
IgG1-AXL-726: human IgG1,κ anti-AXL antibody, VH SEQ ID NO:31, VL SEQ ID NO:33; FN2 domain binding (antibody, V domains shown, homo sapiens) VH: QVQLQQWGAGLLKPSETLSLTCAIDGGSFSGYYWSWIRQPPGKGLEWIGEISHSGRTNYNPSLKSRVTISIDTSKNQFSLKLSSVAAADTAVYYCARFITMIRGAIITHFDYWGQGALVTVSS VL: DIQMTQSPSSLSASVGDRVTITCRASQGISSWLAWYQQKPEKAPKSLIYAASSLQSGVPSRFSGSGSGTDFTLTISSLQPEDFATYYCQQYHSYPYTFGQGTKLEIK | 98 | 0.32 (0.35) μg/mL | 0.55 (0.69) μg/mL | 0.00013 | 240000 | – | 0.288 (0.206) μg/mL | not detectable | 3154 | 0.349 (0.160) μg/mL | –
IgG1-AXL-187: human IgG1,κ anti-AXL antibody, VH SEQ ID NO:19, VL SEQ ID NO:20 (antibody, V domains shown, homo sapiens) VH: QVPLQQWGAGLLKPSETLSLTCAVYGGSFSGYHWSWIRQPPGKGLEWIGEISHSGRTNYNPSLKSRVTISIDTSKNQFSLKLSSVTAADTAVYYCASFITMIRGTIITHFDYWGQGTLVTVSS VL: DIQMTQSPSSLSASVGDRVTITCRASQGISSWLAWYQQKPEKAPKSLIYAASSLQSGVPSRFSGSGSGTDFTLTISSLQPEDFATYYCQQYHSYPYTFGQGTKLEIK | – | – | – | – | – | – | – | – | 2563 | – | –
IgG1-AXL-140: human IgG1,κ anti-AXL antibody, VH SEQ ID NO:3, VL SEQ ID NO:4 (antibody, V domains shown, homo sapiens) VH: EVQLLESGGGLVQPGGSLRLSCAASGFTFSSYAMTWVRQAPGKGLEWVSAISISGASTFYADSVKGRFTISRDNSKNTLSLQMNSLRAEDTAVYFCRGYSGYVYDAFDIWGQGTMVTVSS VL: DIQMTQSPSSLSASVGDRVTITCRASQGISNWLAWYQQKPEKAPKSLIYAASSLQSGVPSRFSGSGSGTDFTLTISSLQPEDFATYYCQQYNSYPLTFGGGTKVEIK | – | – | – | – | – | – | – | – | 2889 | – | –
IgG1-AXL-733: human IgG1,κ anti-AXL antibody, VH SEQ ID NO:34, VL SEQ ID NO:35; FN1 domain binding (antibody, V domains shown, homo sapiens) VH: QVQLVESGGGVVQPGRSLRLSCAASGFSFSTYAMHWVRQAPGKGLEWVAVISYDGDNKYSADSVKGRFTISRDNSKNTLYLQMNSLRAEDTAVYYCARGRKLGIDAFDIWGQGTMVTVSS VL: AIQLTQSPSSLSASVGDRVTITCRASQGISSALAWYQQKPGKAPKLLIYDASSLESGVPSRFSGSGSGTDFTLTISGLQPEDFATYYCQQFNSYPFTFGPGTKVDIK | 96 | 0.49 (0.51) μg/mL | 0.62 (0.23) μg/mL | 0.0097 | 160000 | internalize | 0.176 (0.094) μg/mL | low | – | 0.254 (0.114) μg/mL | –
IgG1-AXL-183-N52Q: point mutant of IgG1-AXL-183, VH SEQ ID NO:17, VL SEQ ID NO:18 (antibody, V domains shown, homo sapiens) VH: QVQLQQWGAGLLKPSETLSLTCAVYGGSFSGYYWSWIRQPPGKGLEWIGEIQQSGSTNYNPSLKSRVTISVDTSKNQFSLKLSSVTAADTSVYYCASGNWDHFFDYWGQGTLVTVSS VL: DIQMTQSPSSVSASVGDRVTITCRASQGISSWLAWYQHKPGKAPKLLIYATSSLQSGVTSRFSGSGSGTDFTLTISSLQPEDFATYYCQQAKSFPWTFGQGTKVEIK | – | – | – | 0.001 | 42000 | internalize | 0.350 (0.206) μg/mL | low | – | 0.324 (0.121) μg/mL | approximately 2.5 fold
IgG1-AXL-183: human IgG1,κ anti-AXL antibody, VH SEQ ID NO:16, VL SEQ ID NO:18; FN1 domain binding (antibody, V domains shown, homo sapiens) VH: QVQLQQWGAGLLKPSETLSLTCAVYGGSFSGYYWSWIRQPPGKGLEWIGEINQSGSTNYNPSLKSRVTISVDTSKNQFSLKLSSVTAADTSVYYCASGNWDHFFDYWGQGTLVTVSS VL: DIQMTQSPSSVSASVGDRVTITCRASQGISSWLAWYQHKPGKAPKLLIYATSSLQSGVTSRFSGSGSGTDFTLTISSLQPEDFATYYCQQAKSFPWTFGQGTKVEIK | 115 | 0.69 (0.72) μg/mL | 1.19 (1.11) μg/mL | 0.00042 | 41000 | – | 0.526 (0.177) μg/mL | low | – | 0.309 (0.086) μg/mL | –
